Results published in publication PMC6098113, “A 2′FY-RNA Motif Defines an Aptamer for Ebolavirus Secreted Protein”.
Where two headings read alike, the source gives them in different places.

Tests used:
[1] = molecular target: T1, EBOV sGP (soluble glycoprotein) (Zaire ebolavirus (EBOV), UniProt P60170 33-324); test: filter binding; 50 and 500 nM sGP; better than 5183; settings: protein: recombinant; tags: 6xHis; chain copies: 2; label: 32P; central bulge of 5183 removed
[2] = molecular target: T1, EBOV sGP (soluble glycoprotein); test: filter binding; monomer basis; Fig S8 legend uses 50 nM; settings: protein: recombinant; tags: 6xHis; chain copies: 2; label: 32P; hairpin
[3] = molecular target: fibrinogen (UniProt P02671;P02675;P02679 20-866;31-491;27-453); test: filter binding; 250 nM to 4 uM fibrinogen; Buffer A: 137 mM NaCl, 2.7 mM KCl, 10 mM Na2HPO4, 2 mM KH2PO4, 5 mM MgCl2, pH 7.4, RT (23-24 C), 30 min; settings: protein: commercial; chain copies: 2;2;2; label: 32P; hairpin
fibrinogen, sequence (P02671 20-866, chain 1 of 3): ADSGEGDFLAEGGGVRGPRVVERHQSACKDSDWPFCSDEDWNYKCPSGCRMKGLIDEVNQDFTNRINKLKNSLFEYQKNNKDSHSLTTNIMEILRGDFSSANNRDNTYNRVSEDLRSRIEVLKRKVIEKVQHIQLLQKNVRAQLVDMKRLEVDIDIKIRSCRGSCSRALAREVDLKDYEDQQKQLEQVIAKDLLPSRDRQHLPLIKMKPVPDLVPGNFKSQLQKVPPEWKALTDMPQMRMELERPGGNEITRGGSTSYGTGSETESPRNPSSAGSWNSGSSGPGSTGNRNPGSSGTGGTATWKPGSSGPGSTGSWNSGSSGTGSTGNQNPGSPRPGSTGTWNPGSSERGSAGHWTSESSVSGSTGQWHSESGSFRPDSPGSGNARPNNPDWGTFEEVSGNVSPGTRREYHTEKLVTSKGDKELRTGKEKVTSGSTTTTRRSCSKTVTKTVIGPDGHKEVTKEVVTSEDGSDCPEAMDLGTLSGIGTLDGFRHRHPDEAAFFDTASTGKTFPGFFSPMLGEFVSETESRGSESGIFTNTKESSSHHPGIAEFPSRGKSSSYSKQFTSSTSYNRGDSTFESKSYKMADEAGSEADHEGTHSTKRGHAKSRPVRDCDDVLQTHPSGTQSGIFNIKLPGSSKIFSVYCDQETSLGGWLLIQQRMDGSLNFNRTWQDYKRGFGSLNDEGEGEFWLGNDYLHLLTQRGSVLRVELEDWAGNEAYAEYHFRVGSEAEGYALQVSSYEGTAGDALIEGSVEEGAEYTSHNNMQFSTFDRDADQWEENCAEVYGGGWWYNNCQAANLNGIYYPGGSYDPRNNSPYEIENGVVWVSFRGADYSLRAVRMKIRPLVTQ
fibrinogen, sequence (P02675 31-491, chain 2 of 3): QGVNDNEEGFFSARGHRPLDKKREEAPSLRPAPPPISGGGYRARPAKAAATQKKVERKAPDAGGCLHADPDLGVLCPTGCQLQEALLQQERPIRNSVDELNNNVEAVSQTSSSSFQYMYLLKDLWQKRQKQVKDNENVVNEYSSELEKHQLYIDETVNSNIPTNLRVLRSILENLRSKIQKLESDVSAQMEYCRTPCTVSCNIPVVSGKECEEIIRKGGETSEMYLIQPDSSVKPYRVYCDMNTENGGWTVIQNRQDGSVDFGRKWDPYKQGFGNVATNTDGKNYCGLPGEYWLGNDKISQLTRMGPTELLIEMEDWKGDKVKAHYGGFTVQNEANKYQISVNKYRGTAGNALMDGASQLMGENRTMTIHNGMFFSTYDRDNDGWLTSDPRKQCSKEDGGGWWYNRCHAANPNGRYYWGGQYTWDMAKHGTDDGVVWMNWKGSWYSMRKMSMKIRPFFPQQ
fibrinogen, sequence (P02679 27-453, chain 3 of 3): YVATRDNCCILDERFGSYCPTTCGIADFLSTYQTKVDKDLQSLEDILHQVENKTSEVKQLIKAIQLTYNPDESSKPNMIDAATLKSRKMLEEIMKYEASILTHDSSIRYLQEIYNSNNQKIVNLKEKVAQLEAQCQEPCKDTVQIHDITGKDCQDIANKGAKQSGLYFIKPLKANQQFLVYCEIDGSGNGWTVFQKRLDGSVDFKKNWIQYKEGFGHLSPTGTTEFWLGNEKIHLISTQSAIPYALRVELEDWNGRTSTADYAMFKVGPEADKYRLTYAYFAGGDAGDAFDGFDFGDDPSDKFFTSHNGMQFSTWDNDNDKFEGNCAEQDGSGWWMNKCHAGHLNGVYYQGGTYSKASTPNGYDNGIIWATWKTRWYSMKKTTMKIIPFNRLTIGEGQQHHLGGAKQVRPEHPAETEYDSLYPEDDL

[4] = molecular target: T2, SUDV sGP (Sudan virus (SUDV), UniProt Q7T9E0 33-324); test: filter binding; monomer basis; settings: protein: commercial; chain copies: 2; label: 32P; hairpin
T2 sequence: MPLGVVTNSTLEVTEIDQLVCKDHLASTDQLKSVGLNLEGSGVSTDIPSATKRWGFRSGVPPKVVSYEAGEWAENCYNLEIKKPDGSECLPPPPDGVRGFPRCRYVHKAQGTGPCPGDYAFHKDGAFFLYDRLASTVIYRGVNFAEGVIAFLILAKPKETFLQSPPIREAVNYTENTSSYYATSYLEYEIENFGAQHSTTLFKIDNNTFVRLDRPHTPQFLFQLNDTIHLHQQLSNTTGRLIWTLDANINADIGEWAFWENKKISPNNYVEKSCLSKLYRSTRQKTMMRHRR

[5] = molecular target: T3, alpha2-macroglobulin (UniProt P01023 24-1474); test: filter binding; 205 nM to 5 uM alpha2-macroglobulin; Buffer A: 137 mM NaCl, 2.7 mM KCl, 10 mM Na2HPO4, 2 mM KH2PO4, 5 mM MgCl2, pH 7.4, RT (23-24 C), 30 min; settings: protein: commercial; label: 32P; hairpin
T3 sequence: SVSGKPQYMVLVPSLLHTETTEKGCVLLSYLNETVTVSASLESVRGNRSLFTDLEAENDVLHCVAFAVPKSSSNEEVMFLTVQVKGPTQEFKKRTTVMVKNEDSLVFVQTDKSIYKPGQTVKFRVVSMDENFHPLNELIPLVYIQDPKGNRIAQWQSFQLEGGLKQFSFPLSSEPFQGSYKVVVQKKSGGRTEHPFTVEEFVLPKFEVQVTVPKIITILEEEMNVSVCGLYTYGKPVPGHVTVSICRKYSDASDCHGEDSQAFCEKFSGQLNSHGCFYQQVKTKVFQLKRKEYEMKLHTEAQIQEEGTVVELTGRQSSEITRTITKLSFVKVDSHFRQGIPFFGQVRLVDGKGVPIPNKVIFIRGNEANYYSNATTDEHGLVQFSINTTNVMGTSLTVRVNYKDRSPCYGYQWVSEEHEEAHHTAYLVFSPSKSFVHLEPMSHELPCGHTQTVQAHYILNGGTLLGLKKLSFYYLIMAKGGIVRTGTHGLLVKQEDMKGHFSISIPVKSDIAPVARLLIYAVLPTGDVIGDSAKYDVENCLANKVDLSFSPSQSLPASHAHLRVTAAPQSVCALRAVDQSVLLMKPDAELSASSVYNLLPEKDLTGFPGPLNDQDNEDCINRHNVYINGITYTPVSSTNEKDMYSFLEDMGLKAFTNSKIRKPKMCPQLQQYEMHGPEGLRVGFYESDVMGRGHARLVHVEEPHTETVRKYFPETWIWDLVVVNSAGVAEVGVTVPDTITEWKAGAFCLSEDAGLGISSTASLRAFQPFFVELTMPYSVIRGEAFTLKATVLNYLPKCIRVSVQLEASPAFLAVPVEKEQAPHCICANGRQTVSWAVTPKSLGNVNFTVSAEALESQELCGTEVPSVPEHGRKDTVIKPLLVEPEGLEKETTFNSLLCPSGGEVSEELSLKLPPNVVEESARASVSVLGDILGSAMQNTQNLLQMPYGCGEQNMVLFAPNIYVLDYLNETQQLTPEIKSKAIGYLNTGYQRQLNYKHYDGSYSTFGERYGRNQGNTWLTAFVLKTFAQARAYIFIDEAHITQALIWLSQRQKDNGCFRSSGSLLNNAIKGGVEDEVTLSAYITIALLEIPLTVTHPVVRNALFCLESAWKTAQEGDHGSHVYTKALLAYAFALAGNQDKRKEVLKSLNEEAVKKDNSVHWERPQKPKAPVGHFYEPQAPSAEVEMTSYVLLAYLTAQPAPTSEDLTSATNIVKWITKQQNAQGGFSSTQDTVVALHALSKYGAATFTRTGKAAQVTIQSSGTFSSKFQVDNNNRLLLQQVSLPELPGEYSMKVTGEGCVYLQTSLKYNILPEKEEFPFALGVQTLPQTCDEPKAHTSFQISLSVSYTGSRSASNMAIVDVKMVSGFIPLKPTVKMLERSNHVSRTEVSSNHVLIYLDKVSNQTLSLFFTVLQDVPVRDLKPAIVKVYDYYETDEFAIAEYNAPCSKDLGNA

[6] = molecular target: Human serum albumin (Homo sapiens (Human), UniProt P02768 25-609); test: filter; PBS + 5 mM MgCl2 pH 7.4; settings: label: 32P
Human serum albumin, sequence (P02768 25-609): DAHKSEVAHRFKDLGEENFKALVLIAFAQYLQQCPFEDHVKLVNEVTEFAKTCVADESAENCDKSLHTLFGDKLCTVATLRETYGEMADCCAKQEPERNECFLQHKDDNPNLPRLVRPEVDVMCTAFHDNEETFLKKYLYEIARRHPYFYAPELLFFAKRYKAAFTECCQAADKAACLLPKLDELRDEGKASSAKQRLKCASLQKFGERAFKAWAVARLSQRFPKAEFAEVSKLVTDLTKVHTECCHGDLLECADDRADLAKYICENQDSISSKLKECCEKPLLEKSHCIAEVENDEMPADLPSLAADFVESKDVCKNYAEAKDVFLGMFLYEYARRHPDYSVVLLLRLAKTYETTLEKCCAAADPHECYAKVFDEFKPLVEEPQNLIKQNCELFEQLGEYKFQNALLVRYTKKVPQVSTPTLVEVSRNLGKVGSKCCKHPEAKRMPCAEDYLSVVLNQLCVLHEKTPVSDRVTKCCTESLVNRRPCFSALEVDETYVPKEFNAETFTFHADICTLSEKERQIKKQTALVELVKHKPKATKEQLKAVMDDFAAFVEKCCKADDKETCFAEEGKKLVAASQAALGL

[7] = molecular target: T1, EBOV sGP (soluble glycoprotein); test: filter binding; settings: protein: recombinant, tags: 6xHis, chain copies: 2
[8] = molecular target: T1, EBOV sGP (soluble glycoprotein); test: competition; 100-fold excess competes with 39SGP1A; settings: protein: recombinant; tags: 6xHis; chain copies: 2; label: 32P (direct); hairpins (Mfold)
[9] = molecular target: T1, EBOV sGP (soluble glycoprotein); settings: protein: recombinant; tags: 6xHis; chain copies: 2
[10] = molecular target: T1, EBOV sGP (soluble glycoprotein); test: filter binding; monomer basis; settings: protein: recombinant; tags: 6xHis; chain copies: 2; label: 32P; hairpins (Mfold)
[11] = molecular target: T1, EBOV sGP (soluble glycoprotein); test: filter binding; up to 800 nM sGP; settings: protein: recombinant; tags: 6xHis; chain copies: 2; label: 32P; hairpins (Mfold)
[12] = molecular target: T1, EBOV sGP (soluble glycoprotein); test: filter binding; 50 and 500 nM sGP; settings: protein: recombinant; tags: 6xHis; chain copies: 2; label: 32P; 3' stem loop of 5183

T1 sequence (P60170 33-324): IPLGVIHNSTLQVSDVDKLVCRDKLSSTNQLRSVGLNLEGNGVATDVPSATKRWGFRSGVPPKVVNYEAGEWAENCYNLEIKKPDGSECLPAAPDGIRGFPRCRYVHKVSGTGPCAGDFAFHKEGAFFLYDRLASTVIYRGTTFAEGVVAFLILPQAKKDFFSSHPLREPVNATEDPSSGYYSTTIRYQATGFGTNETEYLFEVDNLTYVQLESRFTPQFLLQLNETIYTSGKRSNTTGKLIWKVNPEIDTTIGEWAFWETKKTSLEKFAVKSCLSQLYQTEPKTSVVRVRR

B1: 5192 2'FY-RNA (XNA)
RNA: GGGAGACAUAAACGCUCAAUUUUUUAUUGCAUUUUUCUUUGAGCGUCAUUGUGUUUCCUUGAGCACUUCGACAGGAGGCUCACAACAGGC
modifications: 2'-F on all C and U
- binding result [1]: binds

Binder: GGGCGCUCAAUUUUUUAUUGCAUUUUUCUUUGAGCGCCC (XNA, 2'-F on all C and U) [39SGP1A (5199) 2'FY-RNA]
- Kd [2]: 27 nM
- binding result [3]: no binding
- Kd [4]: 240 nM
- binding result [5]: no binding

Binder: GGGCGCUCAAUUUUUUAUUGCAUUUUUCUUUGAGCGCCC (ssRNA, 2'-F pyrimidines) [39SGP1A (5199)]
- Kd [6]: > 68000 nM

B2: 5182 2'FY-RNA (XNA)
RNA: GGGAGACAAGAAUAAACGCUCAAGUCUUUAUUUUUACACUUUUAUUUUACCUUGAGCUUCUUGACCAACAGUGCGCUUCGACAGGAGGCUCACAACAGGC
modifications: 2'-F on all C and U
- Kd ([7]; label: 32P): < 100 nM

B3: 4789 2'FY-RNA (XNA)
RNA: GGGAGACAAGAAUAAACGCUCAAACGUAAUGCAGUCUGUGAGCUUCAGCAAGUAAAAUUAGCGCUGACCGACCCUGUUCGACAGGAGGCUCACAACAGGC
modifications: 2'-F on all C and U
- binding result [8]: binds

B4: 4797 2'FY-RNA (XNA)
RNA: GGGAGACAAGAAUAAACGCUCAAAGCAACACAACGAGAUUAAACAAUCUAUUGUUAACAUUAAACAACUAGGCCGAUUCGACAGGAGGCUCACAACAGGC
modifications: 2'-F on all C and U
- Kd [9]: ~500 nM

B5: 5183 2'FY-RNA (XNA)
RNA: GGGAGACAAGAAUAAACGCUCAAUUUUUUAUUGCAUUUUUCUUUGAGCGUCAUUGAUACCCUGUUUCCUUGAGCACUUCGACAGGAGGCUCACAACAGGC
modifications: 2'-F on all C and U; 2'-OH A and G
- Kd [10]: 54 nM

B6: 2'FC-5183 (XNA)
RNA: GGGAGACAAGAAUAAACGCUCAAUUUUUUAUUGCAUUUUUCUUUGAGCGUCAUUGAUACCCUGUUUCCUUGAGCACUUCGACAGGAGGCUCACAACAGGC
modifications: 2'-F on C only; U is 2'-OH
- binding result [11]: no binding

B7: 5183 (ssRNA)
RNA: GGGAGACAAGAAUAAACGCUCAAUUUUUUAUUGCAUUUUUCUUUGAGCGUCAUUGAUACCCUGUUUCCUUGAGCACUUCGACAGGAGGCUCACAACAGGC
modifications: 2'-F pyrimidines
- Kd [6]: 400 nM

B8: 5183 2'OH RNA (structured_RNA)
RNA: GGGAGACAAGAAUAAACGCUCAAUUUUUUAUUGCAUUUUUCUUUGAGCGUCAUUGAUACCCUGUUUCCUUGAGCACUUCGACAGGAGGCUCACAACAGGC
modifications: none (2'-OH)
- binding result ([7]; label: 32P, hairpins (Mfold)): no binding

B9: 5193 2'FY-RNA (XNA)
RNA: GGGAGACAAGAAUGAUACCCUGUUUCCUUGAGCUAUUCGACAGGAGGCUCACAACAGGC
modifications: 2'-F on all C and U
- binding result [12]: no binding

B10: 5189 2'FY-RNA (XNA)
RNA: GGGAGACAAGAAUAAACGCUCAAUUUUUUAUUGCAUUUUUCUUUGAGCGUCAUUGAUACCCUGUUUCCU
modifications: 2'-F on all C and U
- binding result ([7]; label: 32P): binds

B11: 5179 2'FY-RNA (XNA)
RNA: GGGAGACAAGAAUAAACGCUCAAUCUUUUUAUUUUACUUUUUGUUGUAGAGCGCUUGUUUCUCUGAGUUGUAGCCAUUCGACAGGAGGCUCACAACAGGC
modifications: 2'-F on all C and U
- Kd ([7]; label: 32P (direct)): < 100 nM
